Assay results taken from patent publication US20200024360A1 (Janssen / Centocor, published 2020).

B1: PS3B27 (bispecific antibody, human IgG4 S228P, kappa, lambda, F234A L235A)
heavy 1: not shown
light 1: not shown
heavy 2: EVQLVESGGGLVQPGGSLRLSCAASGFTFNTYAMNWVRQAPGKGLEWVARIRSKYNNYATYYAASVKGRFTISRDDSKNSLYLQMNSLKTEDTAVYYCARHGNFGNSYVSWFAYWGQGTLVTVSSASTKGPSVFPLAPCSRSTSESTAALGCLVKDYFPEPVTVSWNSGALTSGVHTFPAVLQSSGLYSLSSVVTVPSSSLGTKTYTCNVDHKPSNTKVDKRVESKYGPPCPPCPAPEAAGGPSVFLFPPKPKDTLMISRTPEVTCVVVDVSQEDPEVQFNWYVDGVEVHNAKTKPREEQFNSTYRVVSVLTVLHQDWLNGKEYKCKVSNKGLPSSIEKTISKAKGQPREPQVYTLPPSQEEMTKNQVSLTCLVKGFYPSDIAVEWESNGQPENNYKTTPPVLDSDGSFLLYSKLTVDKSRWQEGNVFSCSVMHEALHNHYTQKSLSLSLGK
light 2: QTVVTQEPSLTVSPGGTVTLTCRSSTGAVTTSNYANWVQQKPGQAPRGLIGGTNKRAPGTPARFSGSLLGGKAALTLSGVQPEDEAEYYCALWYSNLWVFGGGTKLTVLGQPKAAPSVTLFPPSSEELQANKATLVCLISDFYPGAVTVAWKADSSPVKAGVETTTPSKQSNNKYAASSYLSLTPEQWKSHRSYSCQVTHEGSTVEKTVAPTECS
notes: IgG4 PAA; PSMA arm chains first, then CD3 arm (F405L, R409K); also called PSMB127 x CD3B219; PS2B27
B2: PS3B30 (bispecific antibody, human IgG4 S228P, kappa, lambda, F234A L235A)
heavy 1: not shown
light 1: not shown
heavy 2: B1 heavy 2
light 2: B1 light 2
notes: IgG4 PAA; PSMA arm chains first, then CD3 arm (F405L, R409K); also called PSMB130 x CD3B219
B3: PS3B22 (bispecific antibody, human IgG4 S228P, kappa, lambda, F234A L235A)
heavy 1: not shown
light 1: DIQMTQSPSSLSASVGDRVTITCRASQSIDRWLNWYQQKPGKAPKLLIYAASSLQSGVPSRFSGSGSGTDFTLTISSLQPEDFATYYCQQSPRYPLTFGQGTKVEIKRTVAAPSVFIFPPSDEQLKSGTASVVCLLNNFYPREAKVQWKVDNALQSGNSQESVTEQDSKDSTYSLSSTLTLSKADYEKHKVYACEVTHQGLSSPVTKSFNRGEC
heavy 2: B1 heavy 2
light 2: B1 light 2
notes: IgG4 PAA; PSMA arm chains first, then CD3 arm (F405L, R409K); also called PSMB122 x CD3B219; PSB22
B4: PS3B28 (bispecific antibody, human IgG4 S228P, kappa, lambda, F234A L235A)
heavy 1: not shown
light 1: not shown
heavy 2: B1 heavy 2
light 2: B1 light 2
notes: IgG4 PAA; PSMA arm chains first, then CD3 arm (F405L, R409K); also called PSMB128 x CD3B219
B5: PS3B19 (bispecific antibody, human IgG4 S228P, kappa, lambda, F234A L235A)
heavy 1: not shown
light 1: not shown
heavy 2: B1 heavy 2
light 2: B1 light 2
notes: IgG4 PAA; PSMA arm chains first, then CD3 arm (F405L, R409K); also called PSMB119 x CD3B219
B6: PS3B23 (bispecific antibody, human IgG4 S228P, kappa, lambda, F234A L235A)
heavy 1: not shown
light 1: not shown
heavy 2: B1 heavy 2
light 2: B1 light 2
notes: IgG4 PAA; PSMA arm chains first, then CD3 arm (F405L, R409K); also called PSMB123 x CD3B219
B7: PS3B24 (bispecific antibody, human IgG4 S228P, kappa, lambda, F234A L235A)
heavy 1: not shown
light 1: not shown
heavy 2: B1 heavy 2
light 2: B1 light 2
notes: IgG4 PAA; PSMA arm chains first, then CD3 arm (F405L, R409K); also called PSMB124 x CD3B219
B8: PS3B20 (bispecific antibody, human IgG4 S228P, kappa, lambda, F234A L235A)
heavy 1: not shown
light 1: not shown
heavy 2: B1 heavy 2
light 2: B1 light 2
notes: IgG4 PAA; PSMA arm chains first, then CD3 arm (F405L, R409K); also called PSMB120 x CD3B219

Experiments:
[1] = biological target: T1, Cynomolgous monkey PSMA, full length (Macaca fascicularis, UniProt Q04609 1-750 (human entry)); experiment: FACS, whole cell binding, cyno PSMA HEK; calculated EC50
T1 construct: On transfected HEK293F cells; also called cyno PSMA; EHH56646.1
T1 chain: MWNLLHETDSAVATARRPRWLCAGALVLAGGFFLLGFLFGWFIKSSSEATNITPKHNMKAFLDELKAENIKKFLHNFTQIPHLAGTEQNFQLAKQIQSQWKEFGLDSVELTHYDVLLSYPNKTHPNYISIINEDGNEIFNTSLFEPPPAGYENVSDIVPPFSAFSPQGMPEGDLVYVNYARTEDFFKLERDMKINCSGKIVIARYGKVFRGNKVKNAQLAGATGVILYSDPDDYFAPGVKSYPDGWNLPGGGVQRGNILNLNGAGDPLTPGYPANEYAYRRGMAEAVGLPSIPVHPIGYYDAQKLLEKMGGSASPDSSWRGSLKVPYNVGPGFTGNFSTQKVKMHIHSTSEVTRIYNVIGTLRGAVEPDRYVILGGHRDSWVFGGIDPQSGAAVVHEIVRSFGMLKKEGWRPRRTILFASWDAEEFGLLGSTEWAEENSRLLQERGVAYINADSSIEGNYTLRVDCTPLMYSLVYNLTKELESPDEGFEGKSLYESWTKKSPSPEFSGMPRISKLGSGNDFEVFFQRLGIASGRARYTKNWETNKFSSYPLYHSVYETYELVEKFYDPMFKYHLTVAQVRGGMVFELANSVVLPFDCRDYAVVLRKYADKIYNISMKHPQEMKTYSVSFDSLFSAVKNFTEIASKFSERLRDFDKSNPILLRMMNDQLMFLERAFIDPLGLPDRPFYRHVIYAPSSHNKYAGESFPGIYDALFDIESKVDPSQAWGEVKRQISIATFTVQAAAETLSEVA
Protocol: (§1) PSMA×CD3 bispecific antibodies were tested for binding to PSMA positive cell lines LNCAP, human PSMA-HEK, Chimpanzee-PSMA-HEK and Cynomolgous monkey PSMA-HEK. To assess the binding capabilities of the PSMA bispecific antibodies, the cell-binding assay was utilized (described previously). Briefly, PSMA expressing tumor cells are bound by bispecific antibodies at known concentrations and the bound antibody is detected by an anti-human kappa light chain PE conjugated detection reagent (Invitrogen). The Mean Fluorescents Intensity (MFI) is the measure of bound bispecific antibody. The MFI is converted to a relative EC₅₀. EC₅₀ is a commonly used dose-response curve, where the half maximal effective concentration or the EC₅₀ point is defined as the inflection point of the curve. EC₅₀ s were determined by measuring cell bound bispecific and known concentrations. […] The dose response curves were then diluted down to that of background or no bispecific binding. The inflection point of this curve reflects the EC₅₀ point. The calculated EC₅₀ is determined by taking the ug/ml amount of bispecific antibody at the EC₅₀ point and converting it to a molarity value based on the MW of the bispecific antibody. Bispecific antibodies were normalized for protein concentration and then incubated with the same number of cells expressing either human or cyno PSMA. The MFI at each concentration was collected by flow cytometry and plotted as a function of concentration. Data was transformed via log 10 and then plotted. Nonlinear regression of binding curves was done to determine EC₅₀ s. These relative values were used for ranking PSMA binding to target cells.

[2] = biological target: T2, chimpanzee PSMA, full length (Pan troglodytes, UniProt Q04609 1-750 (human entry)); experiment: FACS, whole cell binding, chimp PSMA HEK
T2 construct: On transfected HEK293F cells; also called chimp PSMA; H2Q3K5_PANTR
T2 chain: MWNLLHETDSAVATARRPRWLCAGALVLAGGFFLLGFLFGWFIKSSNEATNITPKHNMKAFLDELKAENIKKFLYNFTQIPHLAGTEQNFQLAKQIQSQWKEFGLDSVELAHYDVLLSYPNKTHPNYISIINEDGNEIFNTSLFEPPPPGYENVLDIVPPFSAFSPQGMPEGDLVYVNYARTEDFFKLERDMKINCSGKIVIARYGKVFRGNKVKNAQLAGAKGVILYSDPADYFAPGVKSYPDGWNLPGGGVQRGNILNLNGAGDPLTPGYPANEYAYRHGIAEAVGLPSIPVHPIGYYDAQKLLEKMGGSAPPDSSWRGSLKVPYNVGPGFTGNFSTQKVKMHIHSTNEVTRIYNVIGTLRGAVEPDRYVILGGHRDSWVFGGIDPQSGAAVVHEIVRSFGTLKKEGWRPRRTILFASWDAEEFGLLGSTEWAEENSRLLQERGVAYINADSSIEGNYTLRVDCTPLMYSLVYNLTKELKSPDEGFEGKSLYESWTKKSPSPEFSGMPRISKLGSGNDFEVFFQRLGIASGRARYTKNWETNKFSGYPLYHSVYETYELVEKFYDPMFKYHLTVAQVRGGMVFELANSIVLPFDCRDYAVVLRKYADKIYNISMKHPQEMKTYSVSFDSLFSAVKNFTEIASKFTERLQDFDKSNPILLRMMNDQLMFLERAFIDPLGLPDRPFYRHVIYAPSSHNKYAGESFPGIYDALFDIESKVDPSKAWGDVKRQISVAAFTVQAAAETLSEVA
Protocol: as §1

[3] = biological target: T3, human PSMA (prostate specific membrane antigen), full length (human, UniProt Q04609 1-750); experiment: FACS, whole cell binding, LNCaP
T3 construct: On LNCaP or C4-2B cells (endogenous) or transduced HEK293F cells; also called FOLH1_HUMAN; hPSMA
T3 sequence (Q04609 whole entry): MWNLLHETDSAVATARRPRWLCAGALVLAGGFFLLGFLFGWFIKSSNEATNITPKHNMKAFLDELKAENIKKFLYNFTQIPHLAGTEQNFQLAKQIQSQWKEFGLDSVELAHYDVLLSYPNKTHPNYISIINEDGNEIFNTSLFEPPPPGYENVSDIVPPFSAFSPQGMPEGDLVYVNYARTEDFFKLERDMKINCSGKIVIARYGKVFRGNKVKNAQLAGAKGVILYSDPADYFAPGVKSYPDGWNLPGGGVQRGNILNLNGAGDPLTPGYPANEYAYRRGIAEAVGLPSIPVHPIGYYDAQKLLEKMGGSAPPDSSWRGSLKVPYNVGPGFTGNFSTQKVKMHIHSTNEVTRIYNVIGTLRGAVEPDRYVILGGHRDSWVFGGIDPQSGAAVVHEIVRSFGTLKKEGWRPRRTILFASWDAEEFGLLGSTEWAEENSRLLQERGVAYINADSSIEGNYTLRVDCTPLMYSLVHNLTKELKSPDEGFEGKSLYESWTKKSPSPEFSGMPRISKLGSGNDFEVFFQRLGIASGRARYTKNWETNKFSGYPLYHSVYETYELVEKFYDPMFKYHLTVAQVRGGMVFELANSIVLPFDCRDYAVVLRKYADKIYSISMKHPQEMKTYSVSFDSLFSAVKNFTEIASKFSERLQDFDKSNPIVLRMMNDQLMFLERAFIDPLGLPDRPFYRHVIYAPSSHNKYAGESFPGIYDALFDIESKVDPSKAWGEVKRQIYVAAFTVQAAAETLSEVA
Protocol: as §1

Binder | EC50 [1] [nM] | EC50 [2] [µg/mL] | EC50 [3] [µg/mL] | binding result [3]
B1 | 9.9 | 3.24 | 2.07 | 
B2 | 37.8 | 3.29 | 1.2 | 
B3 | 8 | 3.02 | 2.6 | 
B4 | 4.8 | 1.01 | 1.16 | 
B5 | 12.4 | 5.1 |  | binds
B6 | 26.4 | 0.88 |  | 
B7 | 128 | 1.1 |  | binds
B8 | 14.1 | 3.33 | 123 | 
